Target: Fzd2 pTyr552 peptide (phosphorylated 18-mer)
Assay: SPR

For “GST-FynSH2 (SH2 domain of Fyn) (from UniProt P06241 149-246) (domain or fragment)”, the Kd was 2.1 nM.

— PMC4243058
